We go through 20 sequences from the Immune Epitope Database (IEDB).

One experiment concerns the target HLA-A*01:01. The experiment can be described thus: IEDB peptide-MHC binding, purified MHC/competitive/radioactivity; ≥ and ≤ were set here for values at or beyond the usual limits of such assays. Conditions: source organism: Triticum aestivum.
The target in the next experiment is HLA-B*08:01. The experiment is described as above. The note with it: source organism: Triticum aestivum.

Turning to AMAMKIATA, the IC50 with HLA-A*01:01 is no less than 100000 nM; with HLA-B*08:01, 48 nM.
In the same order, the values of CAAIHTIIH are no less than 100000 nM and 465 nM.
FLLQQCKPV: the IC50 with HLA-A*01:01 was no less than 100000 nM; with HLA-B*08:01, 7.8 nM.
In the case of FPQQQRPFI, the IC50 is no less than 100000 nM with HLA-A*01:01 and 112 nM in the experiment with HLA-B*08:01.
Turning to LAMAMKIATA, the IC50 with HLA-A*01:01 was no less than 100000 nM; with HLA-B*08:01, 161 nM.
Regarding LEAIRSLVL, the IC50 with HLA-A*01:01 is no less than 100000 nM; with HLA-B*08:01, 303 nM.
In the same order, the values of LIPCRDVVL are no less than 100000 nM and 246 nM.
In the case of LLQQCKPVSL, the figures for the IC50 with HLA-A*01:01 and with HLA-B*08:01 were no less than 100000 nM and 14 nM, respectively.
In the same order, the values of LLQQSKPASL are 33500 nM and 25 nM.
With LLSPRGKEL, the figures for the IC50 with HLA-A*01:01 and with HLA-B*08:01 were no less than 100000 nM and 91 nM, respectively.
In the case of LQQCKPVSL, the IC50 was no less than 100000 nM in the experiment with HLA-A*01:01 and 72 nM with HLA-B*08:01.
MAMKIATAA: the values for the IC50 in the experiment with HLA-A*01:01 and with HLA-B*08:01 were no less than 100000 nM and 5.2 nM, respectively.
MKTFLILAL: the IC50 with HLA-A*01:01 was no less than 100000 nM; with HLA-B*08:01, 223 nM.
In the same order, the values of MNIASASRL are no less than 100000 nM and 368 nM.
In the same order, the values of QGMHILLPL are no less than 100000 nM and 73 nM.
In the same order, the values of QLEAIRSLV are 17100 nM and 353 nM.
SSQVLQQSTY: the IC50 is 103 nM with HLA-A*01:01 and no less than 100000 nM with HLA-B*08:01.
In the same order, the values of VMRQQCCQQL are no less than 100000 nM and 162 nM.
VSFQQPQQQY: the concentration for half-maximal inhibition (IC50) is 365 nM with HLA-A*01:01 and no less than 100000 nM with HLA-B*08:01.
The corresponding values for WLQQQLVPQL are no less than 100000 nM and 286 nM.

One may read the IC50 as the midpoint of a concentration-inhibition curve.
